Read-outs that look alike come from different tables or passages of the source.
T1: human Nectin-4 extracellular antigen hNectin-4-His (human, UniProt Q96NY8 32-349)
T1 construct: C-terminal 8xHis tag included
T1 sequence: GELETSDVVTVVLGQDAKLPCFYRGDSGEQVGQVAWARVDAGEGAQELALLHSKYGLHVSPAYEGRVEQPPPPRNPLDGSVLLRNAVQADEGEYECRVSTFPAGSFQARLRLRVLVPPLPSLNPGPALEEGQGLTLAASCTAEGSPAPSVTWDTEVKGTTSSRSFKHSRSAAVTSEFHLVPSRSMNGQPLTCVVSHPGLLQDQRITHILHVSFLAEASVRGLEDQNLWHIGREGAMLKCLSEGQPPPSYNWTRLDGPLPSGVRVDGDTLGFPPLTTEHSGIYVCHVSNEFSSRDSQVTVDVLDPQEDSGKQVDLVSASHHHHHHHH

T2: human Nectin-4, full length on cells (human, UniProt Q96NY8 32-510)
T2 construct: whole, on cells; T-47D cells positive for Nectin-4 expression; also called Nectin-4 on T-47D cells; CHO-Nectin-4
T2 sequence (looked up): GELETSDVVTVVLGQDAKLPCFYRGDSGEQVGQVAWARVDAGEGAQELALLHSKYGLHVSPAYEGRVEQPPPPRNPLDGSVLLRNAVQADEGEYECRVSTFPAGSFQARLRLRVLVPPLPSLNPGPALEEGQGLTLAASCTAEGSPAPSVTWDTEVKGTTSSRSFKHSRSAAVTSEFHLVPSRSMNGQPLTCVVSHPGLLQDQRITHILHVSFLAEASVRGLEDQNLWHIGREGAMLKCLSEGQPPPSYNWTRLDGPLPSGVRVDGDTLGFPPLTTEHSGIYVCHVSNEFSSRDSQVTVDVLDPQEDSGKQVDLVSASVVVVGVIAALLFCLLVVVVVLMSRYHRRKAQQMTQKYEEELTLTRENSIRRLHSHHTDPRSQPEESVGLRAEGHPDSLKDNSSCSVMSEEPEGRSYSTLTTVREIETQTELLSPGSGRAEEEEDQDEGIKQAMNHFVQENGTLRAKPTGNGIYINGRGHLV


What was measured:
[1] = molecular target: T1, human Nectin-4 extracellular antigen …; test: SPR, antibody on Protein A chip, 1:1 fit
Text: In this study, the affinity of the antibodies for the human Nectin-4 extracellular antigen was detected by surface plasmon resonance (SPR) technique (BIAcore: GE Healthcare, T200).

[2] = molecular target: T2, human Nectin-4, full length on cells; test: flow cytometry, T-47D cells, antibody bound on ice, 0 h at 37 C
Method: In this assay, the relative amount of antibodies remaining on the cell surface after co-incubation at 37° C. for a certain period of time was detected by FACS to reflect the endocytosis efficiency. The procedures are briefly described as follows: T-47D cells (human ductal breast cancer cells, derived from the Cell Bank of Chinese Academy of Sciences, Cat.No. TCHu 87); the antibodies of interest were adjusted to 10 µg/mL and co-incubated with the cells on ice for 1 h; the cells were washed 3 times with pre-cooled PBS, and then placed at 37° C. and incubated for 0 h, 2 h and 4 h; 0.2% N₃Na was added to stop the endocytosis reaction; the cells were washed with PBS thrice, followed by the addition of the PE-labeled anti-human Fc secondary antibody (Invitrogen 12-4998-82); the cells were incubated at 4° C. for 30 min; the red fluorescence signal was detected on a flow cytometer.

[3] = molecular target: T1, human Nectin-4 extracellular antigen …; test: ELISA, coated hNectin-4-His
Text: (§1) The binding activity of the antibodies was detected by ELISA.

[4] = molecular target: T1, human Nectin-4 extracellular antigen …; test: ELISA, coated hNectin-4-His; remark: listed apart in the source
Text: as §1

| Kd [1] | koff [1] | kon [1] | MFI (mean fluorescence intensity) 0 h [2] | EC50 [3] | EC50 [4] | Binder |
| --- | --- | --- | --- | --- | --- | --- |
| 533 pM | 0.000304 s⁻¹ | 570000 M⁻¹ s⁻¹ | – | 0.06 µg/mL | – | antibody 10F4-2C12 (antibody, human IgG1, kappa, V domains shown) VH: EVQLVESGGGLVQPGGSLRLSCAASGYNFGDYSMSWVRQAPGKGLEWVSVIDTTSAYTRYADSVKGRFTISRDNSKNTLYLQMNSLRAEDTAVYYCAREYSDVVDYVSVRTPLDYWGQGTLVTVSS VL: DIQMTQSPSSLSASVGDRVTITCRASQGISSYLAWYQQKPGKAPKLLIYAASSLQSGVPSRFSGSGSGTDFTLTISSLQPEDFATYYCQQHYTTPPTFGQGTKVEIKR |
| 399 pM | 0.000137 s⁻¹ | 343000 M⁻¹ s⁻¹ | 63400 MFI | – | – | antibody 10F4-5 (antibody, human IgG1, kappa, V domains shown) VH: EVQLVESGGGLVQPGGSLRLSCAASGFIFDGYDMSWVRQAPGKGLEWVSVIKDHGGYKFYADSVKGRFTISRDNSKNTLYLQMNSLRAEDTAVYYCAREYSDVVDYVSVRTPLDYWGQGTLVTVSS VL: DIQMTQSPSSLSASVGDRVTITCRASQGISSYLAWYQQKPGKAPKLLIYAASSLQSGVPSRFSGSGSGTDFTLTISSLQPEDFATYYCQQHYTTPPTFGQGTKVEIKR |
| 241 pM | 0.000317 s⁻¹ | 1.32e+06 M⁻¹ s⁻¹ | 59400 MFI | – | 0.014 µg/mL | antibody 1F3-2B1 (antibody, human IgG1, kappa, V domains shown) VH: EVQLVESGGGLVQPGGSLRLSCAASGYNFDNYAMSWVRQAPGKGLEWVSGIKPDSATTYYADSVKGRFTISRDNSKNTLYLQMNSLRAEDTAVYYCARAELLAFDVYTASDYWGQGTLVTVSS VL: DIQMTQSPSSLSASVGDRVTITCRASQGISSYLAWYQQKPGKAPKLLIYAASSLQSGVPSRFSGSGSGTDFTLTISSLQPEDFATYYCQQHYTTPPTFGQGTKVEIKR |
| 605 pM | 0.000212 s⁻¹ | 350000 M⁻¹ s⁻¹ | – | 0.059 µg/mL | – | antibody 10F4-1H11 (antibody, human IgG1, kappa, V domains shown) VH: EVQLVESGGGLVQPGGSLRLSCAASGYTFTGFWMSWVRQAPGKGLEWVSSISPDSGTKHYADSVKGRFTISRDNSKNTLYLQMNSLRAEDTAVYYCAREYSDVVDYVSVRTPLDYWGQGTLVTVSS VL: DIQMTQSPSSLSASVGDRVTITCRASQGISSYLAWYQQKPGKAPKLLIYAASSLQSGVPSRFSGSGSGTDFTLTISSLQPEDFATYYCQQHYTTPPTFGQGTKVEIKR |
| 872 pM | 0.00102 s⁻¹ | 1.17e+06 M⁻¹ s⁻¹ | 58200 MFI | – | 0.009 µg/mL | antibody 1F3-2E8 (antibody, human IgG1, kappa, V domains shown) VH: EVQLVESGGGLVQPGGSLRLSCAASGYSFSDYGMSWVRQAPGKGLEWVSWISPSKGSASYADSVKGRFTISRDNSKNTLYLQMNSLRAEDTAVYYCARAELLAFDVYTASDYWGQGTLVTVSS VL: DIQMTQSPSSLSASVGDRVTITCRASQGISSYLAWYQQKPGKAPKLLIYAASSLQSGVPSRFSGSGSGTDFTLTISSLQPEDFATYYCQQHYTTPPTFGQGTKVEIKR |

Continued, binder first:

| Binder | Kd [1] | koff [1] | kon [1] | MFI (mean fluorescence intensity) 0 h [2] | EC50 [3] | EC50 [4] |
| --- | --- | --- | --- | --- | --- | --- |
| antibody 10F4-1 (antibody, human IgG1, kappa, V domains shown) VH: EVQLVESGGGLVQPGGSLRLSCAASGDSFTNYWMSWVRQAPGKGLEWVSGISQGGSYAYYADSVKGRFTISRDNSKNTLYLQMNSLRAEDTAVYYCAREYSDVVDYVSVRTPLDYWGQGTLVTVSS VL: DIQMTQSPSSLSASVGDRVTITCRASQGISSYLAWYQQKPGKAPKLLIYAASSLQSGVPSRFSGSGSGTDFTLTISSLQPEDFATYYCQQHYTTPPTFGQGTKVEIKR | 545 pM | 0.000226 s⁻¹ | 415000 M⁻¹ s⁻¹ | 58600 MFI | – | – |
| antibody 10F4-1A1 (antibody, human IgG1, kappa, V domains shown) VH: EVQLVESGGGLVQPGGSLRLSCAASGFSFDNYDMSWVRQAPGKGLEWVSSIKPGSAYKFYADSVKGRFTISRDNSKNTLYLQMNSLRAEDTAVYYCAREYSDVVDYVSVRTPLDYWGQGTLVTVSS VL: DIQMTQSPSSLSASVGDRVTITCRASQGISSYLAWYQQKPGKAPKLLIYAASSLQSGVPSRFSGSGSGTDFTLTISSLQPEDFATYYCQQHYTTPPTFGQGTKVEIKR | 432 pM | 0.000186 s⁻¹ | 430000 M⁻¹ s⁻¹ | – | 0.051 µg/mL | – |
| antibody 10F4-1H6 (antibody, human IgG1, kappa, V domains shown) VH: EVQLVESGGGLVQPGGSLRLSCAASGFNFYDYDMSWVRQAPGKGLEWVSGIKTHSGGNGYADSVKGRFTISRDNSKNTLYLQMNSLRAEDTAVYYCAREYSDVVDYVSVRTPLDYWGQGTLVTVSS VL: DIQMTQSPSSLSASVGDRVTITCRASQGISSYLAWYQQKPGKAPKLLIYAASSLQSGVPSRFSGSGSGTDFTLTISSLQPEDFATYYCQQHYTTPPTFGQGTKVEIKR | 505 pM | 0.000151 s⁻¹ | 299000 M⁻¹ s⁻¹ | – | 0.063 µg/mL | – |
| antibody 10F4-1G7 (antibody, human IgG1, kappa, V domains shown) VH: EVQLVESGGGLVQPGGSLRLSCAASGYNFGDYDMSWVRQAPGKGLEWVSSIIGHGDTKFYADSVKGRFTISRDNSKNTLYLQMNSLRAEDTAVYYCAREYSDVVDYVSVRTPLDYWGQGTLVTVSS VL: DIQMTQSPSSLSASVGDRVTITCRASQGISSYLAWYQQKPGKAPKLLIYAASSLQSGVPSRFSGSGSGTDFTLTISSLQPEDFATYYCQQHYTTPPTFGQGTKVEIKR | 374 pM | 0.000145 s⁻¹ | 389000 M⁻¹ s⁻¹ | – | 0.068 µg/mL | – |
| antibody 10F4-2F11 (antibody, human IgG1, kappa, V domains shown) VH: EVQLVESGGGLVQPGGSLRLSCAASGYNFTSYDMSWVRQAPGKGLEWVSGIKTGGGSARYADSVKGRFTISRDNSKNTLYLQMNSLRAEDTAVYYCAREYSDVVDYVSVRTPLDYWGQGTLVTVSS VL: DIQMTQSPSSLSASVGDRVTITCRASQGISSYLAWYQQKPGKAPKLLIYAASSLQSGVPSRFSGSGSGTDFTLTISSLQPEDFATYYCQQHYTTPPTFGQGTKVEIKR | 396 pM | 0.000161 s⁻¹ | 406000 M⁻¹ s⁻¹ | – | 0.078 µg/mL | – |
| antibody 10F4-2C6 (antibody, human IgG1, kappa, V domains shown) VH: EVQLVESGGGLVQPGGSLRLSCAASGFNFGGFDMSWVRQAPGKGLEWVSGIKQYKGYTSYADSVKGRFTISRDNSKNTLYLQMNSLRAEDTAVYYCAREYSDVVDYVSVRTPLDYWGQGTLVTVSS VL: DIQMTQSPSSLSASVGDRVTITCRASQGISSYLAWYQQKPGKAPKLLIYAASSLQSGVPSRFSGSGSGTDFTLTISSLQPEDFATYYCQQHYTTPPTFGQGTKVEIKR | 285 pM | 8.36e-05 s⁻¹ | 294000 M⁻¹ s⁻¹ | – | 0.09 µg/mL | – |
| antibody 1F3-1E1 (antibody, human IgG1, kappa, V domains shown) VH: EVQLVESGGGLVQPGGSLRLSCAASGFSFDDYAMSWVRQAPGKGLEWVSIIYPTGSTNYYADSVKGRFTISRDNSKNTLYLQMNSLRAEDTAVYYCARAELLAFDVYTASDYWGQGTLVTVSS VL: DIQMTQSPSSLSASVGDRVTITCRASQGISSYLAWYQQKPGKAPKLLIYAASSLQSGVPSRFSGSGSGTDFTLTISSLQPEDFATYYCQQHYTTPPTFGQGTKVEIKR | 141 pM | 0.000212 s⁻¹ | 1.51e+06 M⁻¹ s⁻¹ | 73400 MFI | – | 0.017 µg/mL |
| antibody 10F4-3 (antibody, human IgG1, kappa, V domains shown) VH: EVQLVESGGGLVQPGGSLRLSCAASGFSFGDFAMSWVRQAPGKGLEWVSVIDGHTAYNSYADSVKGRFTISRDNSKNTLYLQMNSLRAEDTAVYYCAREYSDVVDYVSVRTPLDYWGQGTLVTVSS VL: DIQMTQSPSSLSASVGDRVTITCRASQGISSYLAWYQQKPGKAPKLLIYAASSLQSGVPSRFSGSGSGTDFTLTISSLQPEDFATYYCQQHYTTPPTFGQGTKVEIKR | 352 pM | 0.000122 s⁻¹ | 346000 M⁻¹ s⁻¹ | 61200 MFI | – | – |
| antibody 1F3-1B1 (antibody, human IgG1, kappa, V domains shown) VH: EVQLVESGGGLVQPGGSLRLSCAASGFTFGTYGMSWVRQAPGKGLEWVSGIKPGDSTTYYADSVKGRFTISRDNSKNTLYLQMNSLRAEDTAVYYCARAELLAFDVYTASDYWGQGTLVTVSS VL: DIQMTQSPSSLSASVGDRVTITCRASQGISSYLAWYQQKPGKAPKLLIYAASSLQSGVPSRFSGSGSGTDFTLTISSLQPEDFATYYCQQHYTTPPTFGQGTKVEIKR | 170 pM | 0.000204 s⁻¹ | 1.2e+06 M⁻¹ s⁻¹ | 65300 MFI | – | 0.016 µg/mL |

— patent US20260144882A1 (BIO THERA SOLUTIONS, published 2026)
